Reference: patent US7268110B2, “Agents for preventing and treating thrombocytopenia” (Chugai Seiyaku Kabushiki Kaisha, priority 1996, dated 2007)

Tests used:
[1] = system: platelet; test: Effectiveness of PTH derivative, daily administration to mouse; assay type: in vivo; details: C57B1/6N mice, 200 μg/kg subcutaneously once a day for six days, blood 24 h after final administration
Method: Effectiveness of PTH Derivative
Ten-week old male C57B1/6N mice as purchased from Japan Charles River Co., Ltd. were used in the experiment.
Drug solutions to be administered were prepared basically from human PTH(1-84) and human PTH(1-34) by the same procedure as in Example 1 to give a drug concentration of 20 μg/mL.
Eighteen mice were divided into three groups, which were administered subcutaneously with the two drug solutions and a control (citrate buffer) for six days on a once-a-day basis in a volume of 10 mL/kg. […] The administration was initiated at 10 a.m.
After 24 h of the final administration, a blood sample was withdrawn from each mouse through the orbital vein. Peripheral corpuscle counts were obtained with an automatic corpuscle counter F-800 (TOA MEDICAL ELECTRONICS CO., LTD).

[2] = system: platelet count; test: Test for daily administration to mouse (platelet increasing action); assay type: in vivo; details: C57B1/6N mice; for platelet count: day 5
Method: Test for Daily Administration to Mouse
Nine-week old male C57B1/6N mice as purchased from Japan Charles River Co., Ltd. were used in the experiment.
Drug solutions to be administered were prepared basically by the same procedure as in Example 1 to give drug concentrations of 5, 20 and 80 μg/mL.
The mice under test were divided into four groups, which were administered subcutaneously with the three drug solutions and a control (citrate buffer) once a day in a volume of 10 mL/kg. […] The administration was initiated at 10 a.m.
On days 5, 7 and 9 after the start of administration, five or six mice were picked up at random from each group of animals and blood samples were withdrawn through the orbital vein. The sampling of blood was timed to occur 24 h of the final administration. Separate blood samples were taken from untreated mice (five in number) to obtain the value for normal mouse. Peripheral corpuscle counts were obtained with an automatic corpuscle counter F-800 (TOA MEDICAL ELECTRONICS CO., LTD.).

[3] = system: platelet counts; test: Test for daily administration to rabbit (platelet increasing action); assay type: in vivo; details: rabbits, 200 μg/kg subcutaneously daily
Method: Test for Daily Administration to Rabbit
Six 12-15 week old male Japanese albino rabbits JW/CSK were used in the experiment. The animals were individually kept in aluminum rabbit bracket cages Rb-1 (350^w×500^d×350^h mm) in a vavarium in a specific pathogen-free environment under the following conditions: temperature, 24±2° C.; humidity, 50±10%; illumination, light turned on at 5:00 and turned off at 19:00; ventilation, 15 changes/hr. Each animal was supplied with 120 g of a radiation-sterilized feed for rabbits RM (purchased from Funahashi Farm) per day. The animals were also allowed to drink to tap water ad libitum from an automatic water feeder.
Human PTH(1-84) was administered in a volume of 2 mL/vial at a concentration of 200 μg/mL. A solvent was also supplied in a volume of 2 mL/vial. Both the drug and the control were stored at −135° C. until use.
PTH (200 μg/kg) was administered to the rabbits subcutaneously at the back of their neck for 13 consecutive days. The solvent was similarly administered in the same volume as the dose of a rh-PTH solution calculated from their body weight.
Blood samples (0.5 mL) were withdrawn from the rabbits through the lateral auricular vein before the administration and on days 2, 6, 9 and 13 during the administration period. […]

[4] = system: CFU-GM (precursor cells of granulocytes and macrophages); details: report by Meytes et al, J. Clin. Invest. 1981; cited from earlier work
[5] = system: platelet counts; test: Test for single-dose administration to mouse (platelet increasing action); assay type: in vivo; details: C57B1/6N mice, 10 μg/kg single dose through the tail vein
Method: Test for Single-Dose Administration to Mouse
Nine-week old male C57B1/6N mice as purchased from Japan Charles River Co. Ltd. were used in the experiment.
Human PTH(1-84) was dissolved in a citrate buffer (pH 5; containing 0.05% of Tween 80) at final concentrations of 1, 0.2 and 0.04 ˜g/mL so as to prepare the drug solutions to be administered.
Each of the thus prepared drug solutions and a control (citrate buffer) was administered to 15 mice through the tail vein in a volume of 10 mL/kg. […] The administration was initiated at 10 a.m.
After 3, 6 and 9 hours of the administration, five mice were picked up at random from each group of animals and blood samples were withdrawn through the orbital vein. At 10 a.m. on the same day, separate blood samples were taken from untreated mice (four in number) to obtain the preadministration value. Peripheral corpuscle counts were obtained with an automatic corpuscle counter F-800 (TOA MEDICAL ELECTRONICS CO., LTD.).

[6] = system: BFU-E (precursor cells of erythrocytes); details: report by Meytes et al, J. Clin. Invest. 1981; cited from earlier work

Row | Molecule | platelet increasing action [1] | platelet count ([2]; 200 μg/kg subcutaneously once a day) | platelet count ([2]; 800 μg/kg subcutaneously once a day) | platelet count vs the control ([2]; all treated groups (50, 200 and 800 μg/kg subcutaneously once a day), day 7) | platelet count relative to the initial level ([3]; day 13) | platelet count relative to the initial value ([3]; increase from day 2 until day 6) | in vitro colony formation by CFU-GM [4] | platelet counts over the control ([5]; 6 h after the administration) | platelet counts over the control ([5]; 9 h after the administration) | in vitro colony formation by BFU-E [6]
1 | human PTH(1-34) (SVSEIQLMHNLGKHLNSMERVEWLRKKLQDVHNF; Parathyroid hormone; UniProt P01270 32-65, looked up, fragment) [PTH(134), partial peptide of PTH composed of 34 amino acids as counted from the N terminus; purchased from Peptide Institute, Inc, reference compound] | comparable platelet increasing action to PTH(1-84) |  |  |  |  |  |  |  |  | 
2 | human PTH(1-84) (protein, UniProt P01270 32-115, looked up, Parathyroid hormone) Parathyroid hormone: SVSEIQLMHNLGKHLNSMERVEWLRKKLQDVHNFVALGAPLAPRDAGSQRPRKKEDNVLVESHEKSLGEADKADVNVLTKAKSQ | platelet increasing action | tendency to increase | tendency to increase | significantly higher | substantially returned to the initial level | two to four | interfered | significant increase | significant increase | interfered
